According to paper PMC7112944 (Science Advances, 2020):

What was measured:
[1] = target: T1, N_(460–525) (measles virus, UniProt P04851 460-525); assay: ITC
T1 sequence (looked up): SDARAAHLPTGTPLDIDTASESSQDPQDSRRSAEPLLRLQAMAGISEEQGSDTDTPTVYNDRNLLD

[2] = target: T1, N_(460–525); assay: ITC + NMR titration

B1: Phosphoprotein XD domain (PXD), P_(457–507) (domain or fragment, measles virus, UniProt P03422 457-507, looked up)
chain: GPASRSVIRSIIKSSRLEEDRKRYLMTLLDDIKGANDLAKFHQMLMKIIMK
dH [1]: -10.46 ± 0.0465 kcal/mol
stoichiometry N [1]: 0.927 sites
Kd [2]: ~5 µM
